Assay results from PMC4342785 (Nature, 2015).

Target: T1, mouse core RAG1 (384–1008aa) (mouse, UniProt P15919 384-1008)
T1 sequence (looked up): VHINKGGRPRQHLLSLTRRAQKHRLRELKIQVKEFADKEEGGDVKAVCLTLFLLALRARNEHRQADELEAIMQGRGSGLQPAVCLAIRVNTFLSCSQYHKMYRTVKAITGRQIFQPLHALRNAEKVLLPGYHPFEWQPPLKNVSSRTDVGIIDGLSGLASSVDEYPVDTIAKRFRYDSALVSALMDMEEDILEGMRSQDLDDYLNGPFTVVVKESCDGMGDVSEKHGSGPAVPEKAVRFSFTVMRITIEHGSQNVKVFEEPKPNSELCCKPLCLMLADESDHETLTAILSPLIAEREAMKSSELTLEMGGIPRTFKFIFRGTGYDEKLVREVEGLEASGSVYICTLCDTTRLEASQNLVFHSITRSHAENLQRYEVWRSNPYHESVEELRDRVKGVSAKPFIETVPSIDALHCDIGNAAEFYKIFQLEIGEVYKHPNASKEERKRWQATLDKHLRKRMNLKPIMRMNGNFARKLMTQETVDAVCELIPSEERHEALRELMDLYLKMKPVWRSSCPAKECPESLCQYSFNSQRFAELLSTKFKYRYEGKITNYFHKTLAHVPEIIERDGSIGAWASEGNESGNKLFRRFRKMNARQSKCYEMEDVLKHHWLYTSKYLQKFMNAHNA
Experiment: crystal structure

B1: mouse core RAG2 (1–387aa), M1V (domain or fragment, UniProt P21784 1-387, looked up)
chain: VSLQMVTVGHNIALIQPGFSLMNFDGQVFFFGQKGWPKRSCPTGVFHFDIKQNHLKLKPAIFSKDSCYLPPLRYPATCSYKGSIDSDKHQYIIHGGKTPNNELSDKIYIMSVACKNNKKVTFRCTEKDLVGDVPEPRYGHSIDVVYSRGKSMGVLFGGRSYMPSTQRTTEKWNSVADCLPHVFLIDFEFGCATSYILPELQDGLSFHVSIARNDTVYILGGHSLASNIRPANLYRIRVDLPLGTPAVNCTVLPGGISVSSAILTQTNNDEFVIVGGYQLENQKRMVCSLVSLGDNTIEISEMETPDWTSDIKHSKIWFGSNMGNGTIFLGIPGDNKQAMSEAFYFYTLRCSEEDLSEDQKIVSNSQTSTEDPGDSTPFEDSEEFCFS
  binding result: binds
